Read-outs that look alike come from different tables or passages of the source.
Tests used:
Assay in all cases: pull-down
[1] = target: T1, His6-tagged NSF (AA 1-744) (mouse, UniProt P46460 1-744)
His6-tagged Arr1 = His6-tagged Arr1 (mouse, UniProt P20443 1-403)
[2] = target: T1, His6-tagged NSF (AA 1-744); remark: listed apart in the source
[3] = target: His6-tagged NSF truncated segment (AA 197-744) (mouse, UniProt P46460 197-744)
Sequence of His6-tagged NSF truncated segment (AA 197-744) (P46460 197-744): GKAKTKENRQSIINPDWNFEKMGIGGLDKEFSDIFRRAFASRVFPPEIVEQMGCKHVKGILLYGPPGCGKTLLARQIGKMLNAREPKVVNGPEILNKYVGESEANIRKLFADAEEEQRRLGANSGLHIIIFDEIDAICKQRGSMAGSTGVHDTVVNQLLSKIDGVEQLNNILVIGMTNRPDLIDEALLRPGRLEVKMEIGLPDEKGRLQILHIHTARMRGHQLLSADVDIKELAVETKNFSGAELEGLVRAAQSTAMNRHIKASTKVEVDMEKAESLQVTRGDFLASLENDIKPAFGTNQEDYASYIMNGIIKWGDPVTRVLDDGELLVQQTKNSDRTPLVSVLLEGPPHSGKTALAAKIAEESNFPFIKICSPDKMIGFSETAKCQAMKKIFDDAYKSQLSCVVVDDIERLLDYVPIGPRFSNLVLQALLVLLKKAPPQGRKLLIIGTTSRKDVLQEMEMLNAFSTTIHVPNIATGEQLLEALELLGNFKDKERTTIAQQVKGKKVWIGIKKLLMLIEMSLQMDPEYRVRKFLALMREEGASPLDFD

B1: GST-tagged truncated Arr1 [AA 1-191] (domain or fragment, mouse, UniProt P20443 1-191, looked up)
chain: MAACGKTNKSHVIFKKVSRDKSVTIYLGKRDYVDHVSQVEPVDGVVLVDPELVKGKKVYVTLTCAFRYGQEDIDVMGLTFRRDLYFSRVQVYPPVGAMSVLTQLQESLLKKLGDNTYPFLLTFPDYLPCSVMLQPAPQDVGKSCGVDFEVKAFASDITDPEEDKIPKKSSVRLLIRKVQHAPPEMGPQPSA
Does B1 bind [1]?
Result: binds

B2: GST-tagged NSF (AA 1-250) (domain or fragment, mouse, UniProt P46460 1-250, looked up)
chain: MAGRTMQAARCPTDELSLSNCAVVNEKDFQSGQHVMVRTSPNHKYIFTLRTHPSVVPGCIAFSLPQRKWAGLSIGQDIEVALYSFDKAKQCIGTMTIEIDFLQKKNIDSNPYDTDKMAAEFIQQFNNQAFSVGQQLVFSFNDKLFGLLVKDIEAMDPSILKGEPASGKRQKIEVGLVVGNSQVAFEKAENSSLNLIGKAKTKENRQSIINPDWNFEKMGIGGLDKEFSDIFRRAFASRVFPPEIVEQMGC
Does B2 bind (His6-tagged Arr1)?
Result: binds

B3: GST-tagged truncated Arr1 [AA 1-370] (domain or fragment, mouse, UniProt P20443 1-370, looked up)
chain: MAACGKTNKSHVIFKKVSRDKSVTIYLGKRDYVDHVSQVEPVDGVVLVDPELVKGKKVYVTLTCAFRYGQEDIDVMGLTFRRDLYFSRVQVYPPVGAMSVLTQLQESLLKKLGDNTYPFLLTFPDYLPCSVMLQPAPQDVGKSCGVDFEVKAFASDITDPEEDKIPKKSSVRLLIRKVQHAPPEMGPQPSAEASWQFFMSDKPLNLSVSLSKEIYFHGEPIPVTVTVTNNTDKVVKKIKVSVEQIANVVLYSSDYYVKPVASEETQEKVQPNSTLTKTLVLVPLLANNRERRGIALDGKIKHEDTNLASSTIIKEGIDRTVMGILVSYHIKVKLTVSGFLGELTSSEVATEVPFRLMHPQPEDPAKESVQ
Does B3 bind [1]?
Result: binds

B4: GST-tagged Arr1 [AA 1-403] (natural protein, mouse, UniProt P20443 1-403, looked up)
chain: MAACGKTNKSHVIFKKVSRDKSVTIYLGKRDYVDHVSQVEPVDGVVLVDPELVKGKKVYVTLTCAFRYGQEDIDVMGLTFRRDLYFSRVQVYPPVGAMSVLTQLQESLLKKLGDNTYPFLLTFPDYLPCSVMLQPAPQDVGKSCGVDFEVKAFASDITDPEEDKIPKKSSVRLLIRKVQHAPPEMGPQPSAEASWQFFMSDKPLNLSVSLSKEIYFHGEPIPVTVTVTNNTDKVVKKIKVSVEQIANVVLYSSDYYVKPVASEETQEKVQPNSTLTKTLVLVPLLANNRERRGIALDGKIKHEDTNLASSTIIKEGIDRTVMGILVSYHIKVKLTVSGFLGELTSSEVATEVPFRLMHPQPEDPAKESVQDENLVFEEFARQNLKDTGENTEGKKDEDAGQDE
Does B4 bind [2]?
Result: binds

Does B4 bind [3]?
Result: binds
